Test results as given in paper PMC3939855.

B1: IRF3 (endogenous, MEFs), P70671 1-419 (natural protein)
chain: METPKPRILPWLVSQLDLGQLEGVAWLDESRTRFRIPWKHGLRQDAQMADFGIFQAWAEASGAYTPGKDKPDVSTWKRNFRSALNRKEVLRLAADNSKDPYDPHKVYEFVTPGARDFVHLGASPDTNGKSSLPHSQENLPKLFDGLILGPLKDEGSSDLAIVSDPSQQLPSPNVNNFLNPAPQENPLKQLLAEEQWEFEVTAFYRGRQVFQQTLFCPGGLRLVGSTADMTLPWQPVTLPDPEGFLTDKLVKEYVGQVLKGLGNGLALWQAGQCLWAQRLGHSHAFWALGEELLPDSGRGPDGEVHKDKDGAVFDLRPFVADLIAFMEGSGHSPRYTLWFCMGEMWPQDQPWVKRLVMVKVVPTCLKELLEMAREGGASSLKTVDLHISNSQPISLTSDQYKAYLQDLVEDMDFQATGNI
B2: IRF3 (endogenous, 293T cells), Q14653 1-427 (natural protein)
chain: MGTPKPRILPWLVSQLDLGQLEGVAWVNKSRTRFRIPWKHGLRQDAQQEDFGIFQAWAEATGAYVPGRDKPDLPTWKRNFRSALNRKEGLRLAEDRSKDPHDPHKIYEFVNSGVGDFSQPDTSPDTNGGGSTSDTQEDILDELLGNMVLAPLPDPGPPSLAVAPEPCPQPLRSPSLDNPTPFPNLGPSENPLKRLLVPGEEWEFEVTAFYRGRQVFQQTISCPEGLRLVGSEVGDRTLPGWPVTLPDPGMSLTDRGVMSYVRHVLSCLGGGLALWRAGQWLWAQRLGHCHTYWAVSEELLPNSGHGPDGEVPKDKEGGVFDLGPFIVDLITFTEGSGRSPRYALWFCVGESWPQDQPWTKRLVMVKVVPTCLRALVEMARVGGASSLENTVDLHISNSHPLSLTSDQYKAYLQDLVEGMDFQGPGES

Key:
[1] = molecular target: T1, IRF3 (endogenous, MEFs) (mouse (endogenous in MEFs)), P70671; assay: native gel or EMSA; settings: remark: other sources report otherwise
T1 chain: B1 chain

[2] = molecular target: T2, IRF3 (endogenous, 293T cells) (human (endogenous in 293T)), Q14653; assay: native gel or EMSA; settings: remark: other sources report otherwise
T2 chain: B2 chain

Binder	stoichiometry N [1]	stoichiometry N [2]
B1	2	
B2		2
